Changes are numbered by the printed parent chain.
B1: VHH-72-C13 (VHH)
VHH: QVQLQESGGGLVCAGGSLRLSCAASGRTFSEYAMGWFRQAPGKEREFVATISWSGGSTYYTDSVKGRFTISRDNAKNTVYLQMNSLKPDDTAVYYCAAAGLGTVVSEWDYDYDYWGQGTQVTVSS
notes: also called VHH-72-13C; VHH-C13
B2: VHH-72 (VHH)
VHH: B1 VHH with C13Q

Tests used:
[1] = target: T1, SARS-CoV-2 spike receptor binding domain (RBD), recombinant (SARS-CoV-2, UniProt P0DTC2 319-541); assay: SPR; settings: both partners purified
T1 construct: also called SARS-CoV-2 RBD; Spike RBD

[2] = target: T2, SARS-CoV-2 spike receptor binding domain (RBD), recombinant (SARS-CoV-2, UniProt P0DTC2); assay: electrochemical titration (differential pulse voltammetry); settings: both partners purified
T2 construct: also called SARS-CoV-2 RBD; Spike RBD

Row | Binder | Kd [1] [nM] | Kd [2] [nM]
1 | B1 | 12.1 | –
2 | B2 | – | 78
